Data: patent publication US20260216242A1, “ALPP-SPECIFIC VARIANT ANTIGEN BINDING MOLECULES” (ALMAC DISCOVERY LIMITED, priority 2022, published 2026)

B1: D10 A06-hFc (S239/442C T366Y/Y407T), [G4S]3 linker, MC-vc-PAB-MMAE conjugate, #633 (Fc fusion, DAR 4)
chain 1: QVQLVESGGGLVQPGGSLRLSCAASGSIFSVNTMGWYRQAPGKQRDLVAVATSGGTIHYADSVKGRFTISRDNAKNTVYLQMNSLKPEDTAVYYCNLVVPYGMIAGDHDYWGQGTKVTVSSGGGGSGGGGSGGGGSEPKSSDKTHTCPPCPAPELLGGPCVFLFPPKPKDTLMISRTPEVTCVVVDVSHEDPEVKFNWYVDGVEVHNAKTKPREEQYNSTYRVVSVLTVLHQDWLNGKEYKCKVSNKALPAPIEKTISKAKGQPREPQVYTLPPSRDELTKNQVSLYCLVKGFYPSDIAVEWESNGQPENNYKTTPPVLDSDGSFFLYSKLTVDKSRWQQGNVFSCSVMHEALHNHYTQKSLCLSPGK
chain 2: QVHLVESGGGLVQAGGSLRLSCAASGRTFLSMGWFRQAPGKEREFVAAISWTGGSTGYADSVKGRFTISRESDKETMYLQMNSLKPEDTAVYYCAARGDVYYGGDDATRYKYWGQGTQVTVSSGGGGSGGGGSGGGGSEPKSSDKTHTCPPCPAPELLGGPCVFLFPPKPKDTLMISRTPEVTCVVVDVSHEDPEVKFNWYVDGVEVHNAKTKPREEQYNSTYRVVSVLTVLHQDWLNGKEYKCKVSNKALPAPIEKTISKAKGQPREPQVYTLPPSRDELTKNQVSLTCLVKGFYPSDIAVEWESNGQPENNYKTTPPVLDSDGSFFLTSKLTVDKSRWQQGNVFSCSVMHEALHNHYTQKSLCLSPGK
modifications: here or on the partner: MC-vc-PAB-MMAE on Cys of S239C and S442C (EU numbering)
B2: D10 E06-hFc (S239/442C T366Y/Y407T), [G4S]3 linker, MC-vc-PAB-MMAE conjugate, #634 (Fc fusion, DAR 4)
chain 1: QVQLVESGGGLVQPGGSLRLSCAASGSIFSVNTMGWYRQAPGKQRDLVAVATSGGTIHYADSVKGRFTISRDNAKNTVYLQMNSLKPEDTAVYYCNLVVPYGMIAGDHDYWGQGTKVTVSSGGGGSGGGGSGGGGSEPKSSDKTHTCPPCPAPELLGGPCVFLFPPKPKDTLMISRTPEVTCVVVDVSHEDPEVKFNWYVDGVEVHNAKTKPREEQYNSTYRVVSVLTVLHQDWLNGKEYKCKVSNKALPAPIEKTISKAKGQPREPQVYTLPPSRDELTKNQVSLYCLVKGFYPSDIAVEWESNGQPENNYKTTPPVLDSDGSFFLYSKLTVDKSRWQQGNVFSCSVMHEALHNHYTQKSLCLSPGK
chain 2: QVHLVESGGGLVQAGGSLRLSCAASRRSFSEYAMGWFRQAPGKEREFVAAIGWSGVIEYADSVKGRFTISRDNAKDTVYLQMNSLKPEDTAVYYCAAGLGIRVVSQTPAYWGQGTQVTVSSGGGGSGGGGSGGGGSEPKSSDKTHTCPPCPAPELLGGPCVFLFPPKPKDTLMISRTPEVTCVVVDVSHEDPEVKFNWYVDGVEVHNAKTKPREEQYNSTYRVVSVLTVLHQDWLNGKEYKCKVSNKALPAPIEKTISKAKGQPREPQVYTLPPSRDELTKNQVSLTCLVKGFYPSDIAVEWESNGQPENNYKTTPPVLDSDGSFFLTSKLTVDKSRWQQGNVFSCSVMHEALHNHYTQKSLCLSPGK
modifications: here or on the partner: MC-vc-PAB-MMAE on Cys of S239C and S442C (EU numbering)
B3: D10 F05-hFc (S239/442C T366Y/Y407T), [G4S]3 linker, MC-vc-PAB-MMAE conjugate, #637 (Fc fusion, DAR 4)
chain 1: QVQLVESGGGLVQPGGSLRLSCAASGSIFSVNTMGWYRQAPGKQRDLVAVATSGGTIHYADSVKGRFTISRDNAKNTVYLQMNSLKPEDTAVYYCNLVVPYGMIAGDHDYWGQGTKVTVSSGGGGSGGGGSGGGGSEPKSSDKTHTCPPCPAPELLGGPCVFLFPPKPKDTLMISRTPEVTCVVVDVSHEDPEVKFNWYVDGVEVHNAKTKPREEQYNSTYRVVSVLTVLHQDWLNGKEYKCKVSNKALPAPIEKTISKAKGQPREPQVYTLPPSRDELTKNQVSLYCLVKGFYPSDIAVEWESNGQPENNYKTTPPVLDSDGSFFLYSKLTVDKSRWQQGNVFSCSVMHEALHNHYTQKSLCLSPGK
chain 2: QVQLVESGGGLVQAGGSLRLSCAASGRAFGDYNIGWFRQAPGKEREFVARRTWDGSSTRYDDSVKGRFTVSIDNAKNTAYLQMNSLKTEDTAVYYCAAGRYSRVRGWEYDYWGQGTQVTVSSGGGGSGGGGSGGGGSEPKSSDKTHTCPPCPAPELLGGPCVFLFPPKPKDTLMISRTPEVTCVVVDVSHEDPEVKFNWYVDGVEVHNAKTKPREEQYNSTYRVVSVLTVLHQDWLNGKEYKCKVSNKALPAPIEKTISKAKGQPREPQVYTLPPSRDELTKNQVSLTCLVKGFYPSDIAVEWESNGQPENNYKTTPPVLDSDGSFFLTSKLTVDKSRWQQGNVFSCSVMHEALHNHYTQKSLCLSPGK
modifications: here or on the partner: MC-vc-PAB-MMAE on Cys of S239C and S442C (EU numbering)
B4: D10 E10-hFc (S239/442C T366Y/Y407T), [G4S]3 linker, MC-vc-PAB-MMAE conjugate, #636 (Fc fusion, DAR 4)
chain 1: QVQLVESGGGLVQPGGSLRLSCAASGSIFSVNTMGWYRQAPGKQRDLVAVATSGGTIHYADSVKGRFTISRDNAKNTVYLQMNSLKPEDTAVYYCNLVVPYGMIAGDHDYWGQGTKVTVSSGGGGSGGGGSGGGGSEPKSSDKTHTCPPCPAPELLGGPCVFLFPPKPKDTLMISRTPEVTCVVVDVSHEDPEVKFNWYVDGVEVHNAKTKPREEQYNSTYRVVSVLTVLHQDWLNGKEYKCKVSNKALPAPIEKTISKAKGQPREPQVYTLPPSRDELTKNQVSLYCLVKGFYPSDIAVEWESNGQPENNYKTTPPVLDSDGSFFLYSKLTVDKSRWQQGNVFSCSVMHEALHNHYTQKSLCLSPGK
chain 2: QVQLVESGGGLVQAGGSLRLSCAVSGRALSDYNIGWFRQAPGKEREFVARKTWDGSSTRYDDSVKGRFTVSIEDAKNTAYLQMSSLKTEDTAVYYCAAGRYSRARGWEYDYWGQGTQVTVSSGGGGSGGGGSGGGGSEPKSSDKTHTCPPCPAPELLGGPCVFLFPPKPKDTLMISRTPEVTCVVVDVSHEDPEVKFNWYVDGVEVHNAKTKPREEQYNSTYRVVSVLTVLHQDWLNGKEYKCKVSNKALPAPIEKTISKAKGQPREPQVYTLPPSRDELTKNQVSLTCLVKGFYPSDIAVEWESNGQPENNYKTTPPVLDSDGSFFLTSKLTVDKSRWQQGNVFSCSVMHEALHNHYTQKSLCLSPGK
modifications: here or on the partner: MC-vc-PAB-MMAE on Cys of S239C and S442C (EU numbering)
B5: A06 E06-hFc (S239/442C T366Y/Y407T), [G4S]3 linker, MC-vc-PAB-MMAE conjugate, #639 (Fc fusion, DAR 4)
chain 1: QVHLVESGGGLVQAGGSLRLSCAASGRTFLSMGWFRQAPGKEREFVAAISWTGGSTGYADSVKGRFTISRESDKETMYLQMNSLKPEDTAVYYCAARGDVYYGGDDATRYKYWGQGTQVTVSSGGGGSGGGGSGGGGSEPKSSDKTHTCPPCPAPELLGGPCVFLFPPKPKDTLMISRTPEVTCVVVDVSHEDPEVKFNWYVDGVEVHNAKTKPREEQYNSTYRVVSVLTVLHQDWLNGKEYKCKVSNKALPAPIEKTISKAKGQPREPQVYTLPPSRDELTKNQVSLYCLVKGFYPSDIAVEWESNGQPENNYKTTPPVLDSDGSFFLYSKLTVDKSRWQQGNVFSCSVMHEALHNHYTQKSLCLSPGK
chain 2: QVHLVESGGGLVQAGGSLRLSCAASRRSFSEYAMGWFRQAPGKEREFVAAIGWSGVIEYADSVKGRFTISRDNAKDTVYLQMNSLKPEDTAVYYCAAGLGIRVVSQTPAYWGQGTQVTVSSGGGGSGGGGSGGGGSEPKSSDKTHTCPPCPAPELLGGPCVFLFPPKPKDTLMISRTPEVTCVVVDVSHEDPEVKFNWYVDGVEVHNAKTKPREEQYNSTYRVVSVLTVLHQDWLNGKEYKCKVSNKALPAPIEKTISKAKGQPREPQVYTLPPSRDELTKNQVSLTCLVKGFYPSDIAVEWESNGQPENNYKTTPPVLDSDGSFFLTSKLTVDKSRWQQGNVFSCSVMHEALHNHYTQKSLCLSPGK
modifications: here or on the partner: MC-vc-PAB-MMAE on Cys of S239C and S442C (EU numbering)

What follows are binders tested against ALPP/ALPPL2 on ALPP/ALPPL2 positive cancer cells (MKN1, NCI-H1651, NCI-N87, Caov-3, HPAC) (assay: cell-based or functional assay).
B1 gave a % viability remaining at 96 h, MKN1 cells of 27.9%, a % viability remaining at 96 h, NCI-H1651 cells of 25.4% and a % viability remaining at 96 h, NCI-N87 cells of 27.3%. It also gave an IC50 at 96 h, cell-killing of MKN1 cells of 1.4 nM, an IC50 at 96 h, cell-killing of NCI-H1651 cells of 5.4 nM and an IC50 at 96 h, cell-killing of NCI-N87 cells of 4.9 nM. Binder B2 has a % viability remaining at 96 h, MKN1 cells of 31.1%, a % viability remaining at 96 h, NCI-H1651 cells of 28.5% and a % viability remaining at 96 h, NCI-N87 cells of 27.6%. It also gave an IC50 at 96 h, cell-killing of MKN1 cells of 2.6 nM, an IC50 at 96 h, cell-killing of NCI-H1651 cells of 1.1 nM and an IC50 at 96 h, cell-killing of NCI-N87 cells of 2.4 nM. B3 was tested, and the % viability remaining at 96 h, MKN1 cells was 28.1%, the % viability remaining at 96 h, NCI-H1651 cells was 28% and the % viability remaining at 96 h, NCI-N87 cells was 28.9%. For the same binder, the IC50 at 96 h, cell-killing of MKN1 cells was 1.3 nM, the IC50 at 96 h, cell-killing of NCI-H1651 cells was 1.2 nM and the IC50 at 96 h, cell-killing of NCI-N87 cells was 5.1 nM. With B4 the % viability remaining at 96 h, MKN1 cells was 30%, the % viability remaining at 96 h, NCI-H1651 cells was 28.9% and the % viability remaining at 96 h, NCI-N87 cells was 26.2%. It also gave an IC50 at 96 h, cell-killing of MKN1 cells of 1.9 nM, an IC50 at 96 h, cell-killing of NCI-H1651 cells of 0.9 nM and an IC50 at 96 h, cell-killing of NCI-N87 cells of 2.1 nM. Work on B5 yielded a % viability remaining at 96 h, MKN1 cells of 30.6%, a % viability remaining at 96 h, NCI-H1651 cells of 28% and a % viability remaining at 96 h, NCI-N87 cells of 27.8%. It also gave an IC50 at 96 h, cell-killing of MKN1 cells of 2.3 nM, an IC50 at 96 h, cell-killing of NCI-H1651 cells of 0.9 nM and an IC50 at 96 h, cell-killing of NCI-N87 cells of 12.9 nM.
